Series [1] has as its target T1, ∆^1-pyrroline-5-carboxylate (P5C) dehydrogenase (PruA) (Mycobacterium tuberculosis, UniProt O50443).
T1 construct: gene rocA
The experiment in a line: biochemical.

In series [2] the test system is O=C(O)C1CCC=N1. The series can be described thus: purified protein. Particulars: NAD^+; pH 7.0; 25.0 °C.
The test system of series [3] is NC(=O)c1ccc[n+]([C@@H]2O[C@H](COP(=O)([O-])OP(=O)(O)OC[C@H]3O[C@@H](n4cnc5c(N)ncnc54)[C@H](O)[C@@H]3O)[C@@H](O)[C@H]2O)c1. The experiment in a line: purified protein. The conditions noted are these: pH 7.0; 25.0 °C; varied: cofactor.

T1 sequence (O50443 1-543): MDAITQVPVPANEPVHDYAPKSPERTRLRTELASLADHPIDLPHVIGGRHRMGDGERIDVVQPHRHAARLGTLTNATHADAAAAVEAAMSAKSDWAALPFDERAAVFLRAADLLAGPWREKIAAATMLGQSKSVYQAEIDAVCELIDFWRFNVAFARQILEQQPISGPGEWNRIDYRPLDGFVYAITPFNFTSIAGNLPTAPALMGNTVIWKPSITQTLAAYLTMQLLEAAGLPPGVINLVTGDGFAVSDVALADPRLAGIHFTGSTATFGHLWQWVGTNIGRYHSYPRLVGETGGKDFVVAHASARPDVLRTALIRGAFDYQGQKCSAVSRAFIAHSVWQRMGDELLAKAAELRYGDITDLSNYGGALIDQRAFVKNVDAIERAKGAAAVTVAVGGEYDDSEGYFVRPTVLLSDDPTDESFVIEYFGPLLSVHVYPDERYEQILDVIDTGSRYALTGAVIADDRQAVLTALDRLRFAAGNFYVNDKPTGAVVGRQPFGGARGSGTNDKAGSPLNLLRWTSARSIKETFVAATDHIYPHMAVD

In the case of `O=C(O)[C@@H]1CCCN1` [L-proline], the affinity in series [1], expressed as Ki, was 6.7 mM.
“∆^1-pyrroline-5-carboxylate (P5C) dehydrogenase (PruA) (Mycobacterium tuberculosis H37Rv)”: in series [2], the Km came out at 120 ± 0.02 µM, the kcat was determined as 1.1 s⁻¹ and the kcat/Km is 8500 M⁻¹ s⁻¹. In addition, in series [3], the Km came out at 33 ± 4.3 µM.

Source of the values: PMC10537722, “Proline Dehydrogenase and Pyrroline 5 Carboxylate Dehydrogenase from Mycobacterium tuberculosis: Evidence for Substrate Channeling” (Pathogens, 2023).
